Data reported in paper PMC4980077 (The FEBS journal, 2016).
Square brackets hold non-standard residues; d marks the D form. Ends that are not written are not given here. * marks the point of attachment. 5‑TAMRA = CN(C)c1ccc2c(-c3ccc(C(=O)*)cc3C(=O)[O-])c3ccc(N(C)C)cc3[o+]c2c1; pS = N[C@@H](COP(=O)(O)O)C(=O)O

Assays:
[1] = molecular target: full-length PKA-RIα regulatory subunit dimer (bovine, UniProt P00514 1-380); test: fluorescence polarisation
[2] = molecular target: full-length PKA-RIβ regulatory subunit dimer (UniProt P31321 1-381); test: fluorescence polarisation
Sequence of full-length PKA-RIβ regulatory subunit dimer (P31321 whole entry): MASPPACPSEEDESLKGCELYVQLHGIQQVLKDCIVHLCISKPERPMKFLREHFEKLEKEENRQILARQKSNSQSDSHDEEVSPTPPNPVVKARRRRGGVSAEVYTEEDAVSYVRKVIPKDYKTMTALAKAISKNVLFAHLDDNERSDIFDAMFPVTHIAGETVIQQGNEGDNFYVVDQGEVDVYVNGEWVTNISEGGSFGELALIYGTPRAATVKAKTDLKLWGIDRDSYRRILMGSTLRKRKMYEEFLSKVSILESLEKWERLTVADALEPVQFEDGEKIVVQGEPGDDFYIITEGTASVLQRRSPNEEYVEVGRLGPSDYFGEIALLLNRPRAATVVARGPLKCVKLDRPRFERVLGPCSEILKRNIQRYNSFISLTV

Sequence of full-length PKA-RIα regulatory subunit dimer (P00514 whole entry): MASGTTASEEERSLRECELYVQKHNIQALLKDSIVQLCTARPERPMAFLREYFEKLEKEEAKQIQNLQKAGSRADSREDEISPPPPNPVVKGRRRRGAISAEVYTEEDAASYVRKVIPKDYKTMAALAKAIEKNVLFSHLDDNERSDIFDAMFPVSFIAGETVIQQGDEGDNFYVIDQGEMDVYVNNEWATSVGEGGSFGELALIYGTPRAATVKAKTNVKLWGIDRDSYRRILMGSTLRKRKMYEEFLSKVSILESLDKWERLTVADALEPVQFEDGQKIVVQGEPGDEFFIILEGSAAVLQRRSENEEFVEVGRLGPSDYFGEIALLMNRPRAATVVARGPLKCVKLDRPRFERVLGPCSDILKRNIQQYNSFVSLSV

B1: phosphorylated smAKAP-AKB domain peptide (pSer66), tagged with 5-TAMRA (peptide)
peptide: {5‑TAMRA}-IVILEYAHRL[pS]QDILCDALQQWAC
modifications: cysteine pairing not given here
- Kd [1]: > 500 nM
- Kd [2]: > 500 nM
